For 1 substance, percent of HBV precipitated through HBs (HBV DNA by qPCR) results are on record in paper PMC6687101.

Some results are limits rather than exact numbers.

For the experiment, the target named is HBV envelope proteins (HBs; L, M and S forms) on HBV virions and subviral particles (hepatitis B virus) (UniProt P03138). Put plainly: co-IP; 50 µg apoE mAb23 or anti-HBs coupled to protein G agarose, mixed with 10 µL CsCl-purified HBV (fraction 7) at 4 °C overnight; HBcAg detected by WB and HBV DNA by qPCR (input = 100%); normal mouse IgG as control. (In general: Real-time PCR tracks product formation cycle by cycle.)

As for “HBV core protein (from UniProt P03146 1-183) (natural protein)”, the percent of HBV precipitated through HBs (HBV DNA by qPCR) is more than 95%.
